The text below walks through data of patent US20250145706A1.

For assay [1], the target named is IGHV4-39/IGLV3-21^R110 BCR on CLL B cells (PBMCs) of a patient (human). The assay is described as follows: flow cytometry; PBMCs of a CLL patient with IGHV4-39/IGLV3-21^R110 BCR, co-stained with anti-CD19 VioBright515. (Flow cytometry measures light scatter and fluorescence of single cells or particles in a stream.)
For assay [2], the target named is BCRs of a CLL patient, which does not harbor IGLV3-21^R110 (human). Put plainly: flow cytometry; PBMCs of a patient with non-IGLV3-21^R110 CLL, co-stained with anti-CD19 (axis label anti-CD19 FITC).
For assay [3], the target named is IGHV3-21/IGLV3-21^G110 BCR, membrane-bound on murine TKO cells (human). The assay is described as follows: flow cytometry; cell mix B (1:1 IGHV3-21/IGLV3-21^G110 BCR TKO cells and BCR-negative TKO cells), co-stained with anti-IgM-PE.
Assay [4] has as its target IGHV3-21/IGLV3-21^R110 BCR, membrane-bound on murine TKO cells (human). The assay is described as follows: flow cytometry; cell mix A (1:1 IGHV3-21/IGLV3-21^R110 BCR TKO cells and BCR-negative TKO cells), co-stained with anti-IgM-PE.

B1: mAb01-01 (antibody, V domains shown)
VH: QVQLQQSGPGLVQPSQSLSITCTVSGFSLTSYGIHWVRQSPGKGLEWLGVIWRGGGTDSNAAFMSRLSITKDNSKSQVFFKMNSLQADDTAIYYCARSRYDEEESMNYWGQGTSVTVSS
VL: QIVLTQSPASLSASVGETVTITCRASGNIHSYLAWYQQKQGKSPQLLVYNAKTLADGVPSRFSGSGSGTQYSLKINSLQPEDFGSYYCQHFWNTPPTFGAGTKLELKR
In assay [1], B1 yielded a % of gated cells in Q5, anti-CD19 positive and mAb01-01-APC negative of 0.29%; a % of gated cells in Q6, anti-CD19 positive and mAb01-01-APC positive of 98.7%. In assay [2], this molecule showed a % of gated cells in Q5, anti-CD19 positive and mAb01-01-APC negative of 98.8%; a % of gated cells in Q6, anti-CD19 positive and mAb01-01-APC positive of 0.28%. In assay [3], this molecule returned a % of gated cells (Gate P1) in Q1, anti-IgM-PE positive and mAb01-01-APC negative of 42.2%; a % of gated cells (Gate P1) in Q2, anti-IgM-PE positive and mAb01-01-APC positive of 1.11%. In assay [4], this molecule registered a % of gated cells (Gate P1) in Q1, anti-IgM-PE positive and mAb01-01-APC negative of 2.78%; a % of gated cells (Gate P1) in Q2, anti-IgM-PE positive and mAb01-01-APC positive of 45.5%.
